According to the supplement of paper PMC9170038:

How the values were obtained:
MS2 coat protein [1] = experiment: apparent KD of MS2 coat protein, switch ON state; designed switch direction (-1 OFF switch, 1 ON switch): -1; higher = weaker reporter binding; details: FMN input: 0 or 200 uM; Eterna round: R93 (includes R88 designs)
How it was run: (§1)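 Apparent KD stands for the median, per design, of fits to normalised cluster binding curves. The curves came from titrating on-chip-transcribed RNA switches on Illumina sequencing clusters with SNAP-549-labelled MS2 coat protein, twofold from 0.7 or 1.5 nM to 3 µM. Buffer was 100 mM Tris-HCl pH 7.5, 80 mM KCl, 4 mM MgCl2, without or with constant ligand.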

MS2 coat protein [2] = experiment: apparent KD of MS2 coat protein, switch OFF state (with FMN for OFF switches, without FMN for ON switches); designed switch direction (-1 OFF switch, 1 ON switch): -1; higher = weaker reporter binding; details: FMN input: 0 or 200 uM; Eterna round: R93 (includes R88 designs)
How it was run: as §1

Sequence | apparent KD of MS2 coat protein (MS2 coat protein [1]) [nM] | apparent KD of MS2 coat protein (MS2 coat protein [2]) [nM]
AACAGUACAGGAUAUACAUGAGGAUCACCCAUGUGGAAAUUAAGUGGCGUACCACAAAGUAGAAGGGUACUGGA [Moding Maslow revisited (73)] | 29.5 | 100
AACAUGUAAGGAUAUCCAAGAAAAGAAAAGAAAGAAAAGAAGGAGAAGGUACAUGAGGAUCACCCAUGUAAGAA [EteRNA is fun!] | 21.6 | 18.9
AACAUGUCAGGAUAUGCAACAGGAGACUGACACGCGAGUGAGCAGAAGGGACAUGAGGAUCACCCAUGUUCAAA [Meechl Ex4 3] | 21.1 | 17.1
AACAUGUCAGGAUAUGUGUAAAGAAUAAAAGAAAUAACAACACAGAAGGGACAUGAGGAUCACCCAUGUCAACA [May 32] | 26.1 | 29.3
AACAUGUGAGGAUAUUAAAGAAAAGAAAAGAAAGAAAAGAAUAAGAAGGCACAUGAGGAUCACCCAUGUAAGAA [EteRNA is fun!] | 32.5 | 26.9
AACUAGUGAGGAUAUACAAGAAUAUAAACAAAAAUGAAGGGACAUGAGGAUCACCCAUGUAGAAGGCACUAACA [Diamond 71] | 34 | 106
AACUGACAUGAGGAUCACCCAUGUCAGGAUAUGACUUCGAAAAAAAAAAAAAACGAUGUCAGAAGGGACAUGGG [Design 69: Sub-opt OB] | 17.6 | 22.3
AACUGACAUGAGGAUCACCCAUGUCAGGAUAUGACUUGAAAAAAAAAAAAAAAACAUGUCAGAAGGGACAUGGG [Design 55 :P Sub-opt HB] | 26.8 | 17.9
AACUGACAUGAGGAUCACCCAUGUCAGGAUAUGCAUCUUAGGAAAAAAAAACUAAGAUGCAGAAGGGACAAGGG [Amethyst 48] | 22.7 | 33.1
AACUGACAUGAGGAUCACCCAUGUCAGGAUAUGCUUCAUAAAAAAAAAAAAAAAUGAUGCAGAAGGGAUAUGGG [Design 33 :P Sub-opt 9] | 18 | 34.3
AAGAAACAUGAGGAUCACCCAUGUCAGGAUAUCCAAAAGAAAAGAAAAGAAAGAAGAAGGAGAAGGGACAAAGG [Neferkamin Anu] | 31 | 40.6
AAGAAACAUGAGGAUCACCCAUGUGAGGAUAUAGAAGAAAGAAAGAAAGAAAGAAGAACUAGAAGGCACAAAGG [Aemilius Rectus] | 33.1 | 35.3
AAGAAACAUGAGGAUCACCCAUGUGAGGAUAUCCAAAAGAAAAGAAAAGAAAGAAGAAGGAGAAGGCACAAAGG [Nikare] | 88.5 | 159
AAGAAACAUGAGGAUCACCCAUGUGAGGAUAUGAAAAAGAAAAGAAAAGAAAGAAGAAUCAGAAGGCACAAAGG [Nebkaure Khety II] | 22.1 | 1850
AAGAAACAUGAGGAUCACCCAUGUGAGGAUAUGUAAAAGAAAAGAAAAGAAAGAAGAAACAGAAGGCACAAAGG [Neferkare VII] | 43.1 | 48
AAGAAACGAGGAUAUACAAGAAAGAAAGAAAAGAAAAGAAAACAUGAGGAUCACCCAUGUAGAAGGCGUUAGAA [EteRNA is fun!] | 22 | 13.8
AAGAACACAGGAUAUACAUGAAAGAAAGAAAAGAAAAGAAAACAUGAGGAUCACCCAUGUAGAAGGGUGUAGAA [EteRNA is fun!] | 454 | 532

Sequence | apparent KD of MS2 coat protein (MS2 coat protein [1]) [nM] | apparent KD of MS2 coat protein (MS2 coat protein [2]) [nM]
AAGAACCAAGGAUAUACAUGAAAGAAAGAAAAGAAAAGAAAACAUGAGGAUCACCCAUGUAGAAGGUGGUAGAA [EteRNA is fun!] | 70.2 | 105
AAGAACUGAGGAUAUACAAAAUAAAAGAAAAGAAAGAAAGAACAUGAGGAUCACCCAUGUAGAAGGCGGAAGAA [Wahibre Ibiau] | 29.4 | 29.1
AAGAACUGAGGAUAUACAUAAUAAAAGAAAAGAAAGAAAGAACAUGAGGAUCACCCAUGUAGAAGGCGGAAGAA [Khaneferre Sobekhotep IV] | 32.7 | 24.5
AAGAAGAGAGGAUAUACAUAAUAAAAGAAAAGAAACAAAGAACAUGAGGAUCACCCAUGUAGAAGGCUCAAGAA [Khasekhemre Neferhotep I] | 32.1 | 51
AAGAAGCAAGGAUAUACAUGAGGAUCACCCAUGUAAAAGAAAGAAAGGGAAAAGAAAAGUAGAAGGUGCAAGAA [Titkheperure Pasebakhenniut II] | 45.2 | 57
AAGAAGUAAGGAUAUACAAAAUAAAAGAAAAGAAAGAAAGAACAUGAGGAUCACCCAUGUAGAAGGUACAAGAA [Sankhkare Mentuhotep III] | 38.1 | 19.6
AAGAAGUCAGGAUAUGCAAAAGAAAAGAAAAGAAAAGAAAAGCAGAAGGGACAUGAGGAUCACCCAUGUAAGAA [Metsuire Cambyses] | 32.7 | 40.1
AAGAAGUGAGGAUAUACAAAAUAAAAGAAAAGAAAGAAAGAACAUGAGGAUCACCCAUGUAGAAGGUACAAGAA [Khakheperre Senusret II] | 29 | 22
AAGAAGUGAGGAUAUACAUGAGGAUCACCCAUGUAAAAGAAAGAAAGGGAAAAGAAAAGUAGAAGGCACAAGAA [Usermaatre-setpenre-meryamun Ramesses VII] | 36.5 | 67.7
AAGAAGUGAGGAUAUACAUGAGGAUCACCCAUGUAAAAGAAAGAAGGGAAAGAGAAAAGUAGAAGGCGCAAGAA [Neferibre Psamtik II] | 38.9 | 42.1
AAGAAGUGAGGAUAUACGCGAACAAAAAAAAAAAAGAAAGCGUAGAAGGCACAUGAGGAUCACCCAUGUCAAAA [Alfred Victor Espinas] | 30.1 | 28.3
AAGAAGUGAGGAUAUCGAAGACUGUCGAAAAGACAGUCGAACGAGAAGGCACAUGAGGAUCACCCAUGUGGAAA [Marsurpial 65% 5] | 30.7 | 36.3
AAGAAGUGAGGAUAUGGAAAAGAAAAGAAAAGAAAAGAAAACCAGAAGGCACAUGAGGAUCACCCAUGUAAGAA [Artabanus the Hyrcanian] | 29.5 | 28
AAGAAGUGAGGAUAUGUCUGUGCGAAAAAAAAAAAGUGCAGACAGAAGGCACAUGAGGAUCACCCAUGUGAAAA [Florian 65% 4] | 21.9 | 26.7
AAGAAGUUAGGAUAUACAAGAAAGAAAGAAAAGAAAAGAAAACAUGAGGAUCACCCAUGUAGAAGGAACUAGAA [EteRNA is fun!] | 26.8 | 19.6
AAGAAUCGAGGAUAUACAUGAGGAUCACCCAUGUAAAAGAAAGAAAAGGGAAAGAAAAGUAGAAGGCGAAAGAA [Userkhaure Setnakht] | 32.8 | 35.3
AAGAGGCUAGGAUAUACACAUCUGAUGACUCAACCUAAAACACAUGAGGAUCACCCAUGUAGAAGGAGCGAAAG [Qucequor] | 20.2 | 17
